According to PMC2816707:

Assays:
[1] = biological target: Recombinant human VEGF165 (human) (UniProt P15692); assay: ELISA; inhibition of VEGF/VEGFR-2 interaction
[2] = biological target: Bevacizumab; assay: ELISA; settings: point at the highest antibody concentration, about 13.3 nM (read from x axis); VEGF captured on ELISA plate; parent: est. 0.86; read off a plot
[3] = biological target: humanized EBV321; assay: ELISA; settings: point at the highest antibody concentration, about 13.3 nM (read from x axis); VEGF captured on ELISA plate; parent: est. 0.66; read off a plot

Chain of rabbit IgG Fc-hVEGF (human VEGF165) fusion protein, wild type (from UniProt P15692-4) G88A; Q89A (P15692 whole entry, looked up, stated change not applied, the tested form may be a part): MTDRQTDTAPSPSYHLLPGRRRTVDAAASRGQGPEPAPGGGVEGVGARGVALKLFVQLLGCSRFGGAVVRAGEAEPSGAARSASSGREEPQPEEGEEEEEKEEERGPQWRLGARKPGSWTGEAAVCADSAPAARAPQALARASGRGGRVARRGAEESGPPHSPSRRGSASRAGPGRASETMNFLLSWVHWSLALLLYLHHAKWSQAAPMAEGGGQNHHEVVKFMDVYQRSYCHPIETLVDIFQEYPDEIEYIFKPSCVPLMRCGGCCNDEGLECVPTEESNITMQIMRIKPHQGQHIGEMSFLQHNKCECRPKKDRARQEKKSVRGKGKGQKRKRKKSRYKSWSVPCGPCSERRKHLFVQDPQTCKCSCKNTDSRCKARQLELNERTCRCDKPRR
Chain of rabbit IgG Fc-hVEGF (human VEGF165) fusion protein, wild type (from UniProt P15692-4) G88A (P15692 whole entry, looked up, stated change not applied, the tested form may be a part): as above
Chain of rabbit IgG Fc-hVEGF (human VEGF165) fusion protein, wild type (from UniProt P15692-4) I46A (P15692 whole entry, looked up, stated change not applied, the tested form may be a part): as above
Chain of Recombinant human VEGF165 (human) (P15692 other isoform, or with tags, fused parts or gaps): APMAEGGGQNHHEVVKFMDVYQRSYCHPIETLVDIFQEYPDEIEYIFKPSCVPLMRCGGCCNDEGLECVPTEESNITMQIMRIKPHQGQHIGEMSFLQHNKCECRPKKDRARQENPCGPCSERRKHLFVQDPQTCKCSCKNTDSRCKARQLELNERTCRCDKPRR

| Substance | IC50 [1] [nM] | response [2] | response [3] |
| --- | --- | --- | --- |
| Bevacizumab | 0.893 |  |  |
| rabbit IgG Fc-hVEGF (human VEGF165) fusion protein, wild type (from UniProt P15692-4) G88A; Q89A |  | 0.13 OD (405nm) | 0.76 OD (405nm) |
| rabbit IgG Fc-hVEGF (human VEGF165) fusion protein, wild type (from UniProt P15692-4) G88A |  | 0.57 OD (405nm) |  |
| rabbit IgG Fc-hVEGF (human VEGF165) fusion protein, wild type (from UniProt P15692-4) I46A |  | 0.88 OD (405nm) |  |
